Test results published in patent publication US20220235109A1 (CUGENE, published 2022).
Numbering of substitutions follows the chain as printed. In names and notes the source's numbering stands.

Tests used:
[1] = biological target: T1, IL-2Rβγ on human CD8+ T cells, NK cells and CD4+ T cells (human, UniProt P14784 27-551; P31785 23-369); experiment: cell-based or functional assay
T1 sequence (looked up) 1: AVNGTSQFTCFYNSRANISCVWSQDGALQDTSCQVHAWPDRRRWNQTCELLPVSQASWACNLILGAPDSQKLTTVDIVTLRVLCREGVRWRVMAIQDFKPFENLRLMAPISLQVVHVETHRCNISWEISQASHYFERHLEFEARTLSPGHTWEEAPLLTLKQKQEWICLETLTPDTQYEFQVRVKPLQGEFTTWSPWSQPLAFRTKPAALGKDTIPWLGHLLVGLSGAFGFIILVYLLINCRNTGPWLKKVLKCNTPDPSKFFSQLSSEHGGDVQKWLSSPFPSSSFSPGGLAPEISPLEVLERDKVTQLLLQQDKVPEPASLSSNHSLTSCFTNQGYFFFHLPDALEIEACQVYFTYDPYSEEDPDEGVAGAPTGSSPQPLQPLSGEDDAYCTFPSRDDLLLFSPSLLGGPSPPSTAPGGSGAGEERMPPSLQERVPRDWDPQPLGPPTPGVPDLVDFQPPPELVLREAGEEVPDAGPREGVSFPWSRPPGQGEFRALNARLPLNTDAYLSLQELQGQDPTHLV
T1 sequence (looked up) 2: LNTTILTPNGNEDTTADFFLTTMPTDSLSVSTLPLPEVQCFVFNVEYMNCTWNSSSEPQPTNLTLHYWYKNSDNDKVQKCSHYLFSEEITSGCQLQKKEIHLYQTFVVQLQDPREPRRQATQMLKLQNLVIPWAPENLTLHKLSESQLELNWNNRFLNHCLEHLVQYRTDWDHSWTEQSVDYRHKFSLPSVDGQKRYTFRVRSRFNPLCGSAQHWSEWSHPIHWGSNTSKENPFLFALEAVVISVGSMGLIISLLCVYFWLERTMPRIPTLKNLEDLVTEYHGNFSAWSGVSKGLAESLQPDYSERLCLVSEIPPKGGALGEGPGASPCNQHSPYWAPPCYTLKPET

[2] = biological target: T2, IL-2Rα-ECD (human, UniProt P01589 22-240); experiment: ELISA, IL-2Rα-ECD coated
T2 construct: coated on ELISA plates at 0.1 µg/well; also called CD25; receptor subunit α
T2 sequence: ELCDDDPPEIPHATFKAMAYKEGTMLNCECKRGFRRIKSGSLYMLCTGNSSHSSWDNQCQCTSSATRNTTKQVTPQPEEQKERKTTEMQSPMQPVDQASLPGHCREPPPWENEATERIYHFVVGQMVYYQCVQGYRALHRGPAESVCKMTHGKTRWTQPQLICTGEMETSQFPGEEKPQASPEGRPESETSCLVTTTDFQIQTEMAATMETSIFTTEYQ
Method: A panel of IL-2 muteins was expressed as C-terminal fusions to the Fc homodimer of Fc heterodimer and screened for binding to IL-2Rα in enzyme-linked immunosorbent assay (ELISA). Briefly, IL-2Rα-ECD (SEQ ID NO: 5) was coated onto the wells of Nunc Maxisorp 96-well microplates at 0.1 μg/well. After overnight incubation at 4° C. and blocking with superblock (Thermo Fisher), 3-fold serial dilutions of IL-2 Fc fusion proteins starting at 100 nM were added to each well at 100 μI/well. Following one-hour incubation at room temperature, 100 μl/well of goat anti-human IgG Fc-HRP (1:5000 diluted in diluent) were added to each well and incubated at room temperature for 1 hour. Wells were thoroughly aspirated and washed three times with PBS/0.05% Tween-20 following each step. Finally, 100 μl TMB substrate was added to each well; the plate was developed at room temperature in the dark for 10 minutes, and 100 μl/well of stop solution (2N Sulfuric acid, Ricca Chemical) was added. Absorbance was determined at 450 nm and curves were fit using Prism software (Graph Pad).

[3] = biological target: T1, IL-2Rβγ on human CD8+ T cells, NK cells …; experiment: cell-based or functional assay; remark: listed apart in the source
[4] = biological target: T3, IL-2Rα (CD25) on human CD4+ Treg cells (human, UniProt P01589 22-272); experiment: cell-based or functional assay
T3 sequence (looked up): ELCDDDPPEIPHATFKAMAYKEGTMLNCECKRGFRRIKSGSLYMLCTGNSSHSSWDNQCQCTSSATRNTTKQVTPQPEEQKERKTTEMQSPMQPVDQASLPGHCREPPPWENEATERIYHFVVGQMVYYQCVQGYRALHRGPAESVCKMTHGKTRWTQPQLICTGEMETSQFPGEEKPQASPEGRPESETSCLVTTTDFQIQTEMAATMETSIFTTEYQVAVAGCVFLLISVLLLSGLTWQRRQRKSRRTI

B1: P-0732 (Fc fusion)
chain: DKTHTCPPCPAPEAAGAPSVFLFPPKPKDTLMISRTPEVTCVVVDVSHEDPEVKFNWYVDGVEVHNAKTKPREEQYNSTYRVVSVLTVLHQDWLNGKEYKCKVSNKALPAPIEKTISKAKGQPREPQVCTLPPSREEMTKNQVSLWCLVKGFYPSDIAVEWESNGQPENNYKTTPPVLDSDGSFFLYSKLTVDKSRWQQGNVFSCSVMHEALHNHYTQKSLSLSPGGGGSGGGSAPTSSSTKKTQLQLEHLLLDLQMILNGINNYKNPKLTRMLTFKFYMPKKATELKHLQCLEEELKRLEEVLNLAQSKNFHLRPRDLISNINVIVLELKGSETTFMCEYADETATIVEFLNRWITFIESIISTLT
Fc: DKTHTCPPCPAPEAAGAPSVFLFPPKPKDTLMISRTPEVTCVVVDVSHEDPEVKFNWYVDGVEVHNAKTKPREEQYNSTYRVVSVLTVLHQDWLNGKEYKCKVSNKALPAPIEKTISKAKGQPREPQVYTLPPCREEMTKNQVSLSCAVKGFYPSDIAVEWESNGQPENNYKTTPPVLDSDGSFFLVSKLTVDKSRWQQGNVFSCSVMHEALHNHYTQKSLSLSPG
Ki67 expression on human CD8+ T cells (EC50 against P-0704) [1]: > 100 fold

B2: P-0766 (Fc fusion)
chain 1: B1 chain with F276A, E296A, R299P, E360Q
chain 2: B1 Fc
notes: knob chain carries the IL-2 variant; hole-Fc; monovalent; also called IL-2 F42A/E62A/S125I monovalent Fc fusion
Binding EC50 vs P-0689 [2]: > 500 fold (ratio of EC50s)
binding result [2]: no binding

B3: P-0702 (Fc fusion)
chain 1: B1 chain with F276A, E296F, R299P, E360Q
chain 2: B1 Fc
notes: knob chain carries the IL-2 variant; hole-Fc; monovalent; also called IL-2 F42A/E62F/S125I monovalent Fc fusion
Binding EC50 vs P-0689 [2]: > 500 fold (ratio of EC50s)
binding result [2]: no binding

B4: P-0703 (Fc fusion)
chain 1: B1 chain with F276A, R299H, E360Q
chain 2: B1 Fc
notes: knob chain carries the IL-2 variant; hole-Fc; monovalent; also called IL-2 F42A/P65H/S125I monovalent Fc fusion
Binding EC50 vs P-0689 [2]: > 500 fold (ratio of EC50s)
binding result [2]: no binding

B5: P-0767 (Fc fusion)
chain 1: B1 chain with F276A, E296H, R299P, E360Q
chain 2: B1 Fc
notes: knob chain carries the IL-2 variant; hole-Fc; monovalent; also called IL-2 F42A/E62H/S125I monovalent Fc fusion
Binding EC50 vs P-0689 [2]: > 500 fold (ratio of EC50s)
binding result [2]: no binding

B6: P-0765 (Fc fusion)
chain 1: B1 chain with F276A, R299A, E360Q
chain 2: B1 Fc
notes: knob chain carries the IL-2 variant; hole-Fc; monovalent; also called IL-2 F42A/P65A/S125I monovalent Fc fusion
Binding EC50 vs P-0689 [2]: 6.8 fold (ratio of EC50s)

B7: P-0880 (antibody, human IgG1, kappa)
heavy 1: not shown
heavy 2: EVQLVESGGGLVKPGGSLRLSCAASGFTFSSYDMSWVRQAPGKGLEWVATISGGGSYTYYPDSVKGRFTISRDNAKNSLYLQMNSLRAEDTAVYYCASPDSSGVAYWGQGTLVTVSSASTKGPSVFPLAPSSKSTSGGTAALGCLVKDYFPEPVTVSWNSGALTSGVHTFPAVLQSSGLYSLSSVVTVPSSSLGTQTYICNVNHKPSNTKVDKKVEPKSCDKTHTCPPCPAPEAAGAPSVFLFPPKPKDTLMISRTPEVTCVVVDVSHEDPEVKFNWYVDGVEVHNAKTKPREEQYNSTYRVVSVLTVLHQDWLNGKEYKCKVSNKALPAPIEKTISKAKGQPREPQVCTLPPSREEMTKNQVSLSCAVKGFYPSDIAVEWESNGQPENNYKTTPPVLDSDGSFFLVSKLTVDKSRWQQGNVFSCSVMHEALHNHYTQKSLSLSPG
light: DIVMTQSPLSLPVTPGEPASITCKASQDVETVVAWYLQKPGQSPRLLIYWASTRHTGVPDRFSGSGSGTDFTLKISRVEAEDVGVYYCQQYSRYPWTFGQGTKLEIKRTVAAPSVFIFPPSDEQLKSGTASVVCLLNNFYPREAKVQWKVDNALQSGNSQESVTEQDSKDSTYSLSSTLTLSKADYEKHKVYACEVTHQGLSSPVTKSFNRGEC
Ki67 EC50 (nM), CD8+ T [3]: 1.7 nM
Ki67 EC50 (nM), NK [3]: 3.6 nM
pSTA5 EC50 (pM), CD8+ T [3]: 73 pM
pSTA5 EC50 (pM), NK [3]: 643 pM

B8: P-0882 (antibody, human IgG1, kappa)
heavy 1: EVQLVESGGGLVKPGGSLRLSCAASGFTFSSYDMSWVRQAPGKGLEWVATISGGGSYTYYPDSVKGRFTISRDNAKNSLYLQMNSLRAEDTAVYYCASPDSSGVAYWGQGTLVTVSSASTKGPSVFPLAPSSKSTSGGTAALGCLVKDYFPEPVTVSWNSGALTSGVHTFPAVLQSSGLYSLSSVVTVPSSSLGTQTYICNVNHKPSNTKVDKKVEPKSCDKTHTCPPCPAPEAAGAPSVFLFPPKPKDTLMISRTPEVTCVVVDVSHEDPEVKFNWYVDGVEVHNAKTKPREEQYNSTYRVVSVLTVLHQDWLNGKEYKCKVSNKALPAPIEKTISKAKGQPREPQVYTLPPCREEMTKNQVSLWCLVKGFYPSDIAVEWESNGQPENNYKTTPPVLDSDGSFFLYSKLTVDKSRWQQGNVFSCSVMHEALHNHYTQKSLSLSPGGGGGSGGGGSGGGGSAPTSSSTKKTQLQLEHLLHDLQMILNGINNYKNPKLTRMLTFKFYMPKKATELKHLQCLEEELKRLEEVLNLAQSKNFHLRPRDLISNINVIVLELKGSETTFMCEYADETATIVEFLNRWITFIQSIISTLT
heavy 2: B7 heavy 2
light: B7 light
Ki67 EC50 (nM), CD8+ T [3]: 77 nM
Ki67 EC50 (nM), NK [3]: 230 nM
pSTA5 EC50 (pM), CD8+ T [3]: 513 pM
pSTA5 EC50 (pM), NK [3]: 9920 pM

B9: P-0885 (antibody, human IgG1, kappa)
heavy 1: B8 heavy 1 with H480Q
heavy 2: B7 heavy 2
light: B7 light
Ki67 EC50 (nM), CD8+ T [3]: 9.3 nM
Ki67 EC50 (nM), NK [3]: 21 nM
pSTA5 EC50 (pM), CD8+ T [3]: 249 pM
pSTA5 EC50 (pM), NK [3]: 2330 pM

B10: P-0837 (antibody, mouse IgG1, kappa)
heavy 1: EVQLQESGPGLVKPSQSLSLTCSVTGYSITSSYRWNWIRKFPGNRLEWMGYINSAGISNYNPSLKRRISITRDTSKNQFFLQVNSVTTEDAATYYCARSDNMGTTPFTYWGQGTLVTVSSAKTTPPSVYPLAPGSAAQTNSMVTLGCLVKGYFPEPVTVTWNSGSLSSGVHTFPAVLQSDLYTLSSSVTVPSSTWPSQTVTCNVAHPASSTKVDKKIVPRDCGCKPCICTVPEVSSVFIFPPKPKDVLTITLTPKVTCVVVAISKDDPEVQFSWFVDDVEVHTAQTKPREEQINSTFRSVSELPIMHQDWLNGKEFKCRVNSAAFGAPIEKTISKTKGRPKAPQVYTIPPPKKQMAKDKVSLTCMITNFFPEDITVEWQWNGQPAENYKNTQPIMKTDGSYFVYSKLNVQKSNWEAGNTFTCSVLHEGLHNHHTEKSLSHSPG
heavy 2: not shown
light: DIVMTQGTLPNPVPSGESVSITCRSSKSLLYSDGKTYLNWYLQRPGQSPQLLIYWMSTRASGVSDRFSGSGSGTDFTLKISGVEAEDVGIYYCQQGLEFPTFGGGTKLELKRTDAAPTVSIFPPSSEQLTSGGASVVCFLNNFYPRDINVKWKIDGSERQNGVLNSWTDQDSKDSTYSMSSTLTLTKDEYERHNSYTCEATHKTSTSPIVKSFNRNEC
pSTAT5 EC50 in Treg cells (human PBMC) [4]: 0.45 pM

B11: P-0782 (antibody, mouse IgG1, kappa)
heavy 1: B10 heavy 1
heavy 2: not shown
light: B10 light
pSTAT5 EC50 in CD8+ T cells (human PBMC) [1]: 4.6 nM
pSTAT5 EC50 in Treg cells (human PBMC) [4]: 4.5 nM
pSTAT5 EC50 in Treg cells, fold against P-0837 [4]: 10000 fold

B12: P-0838 (antibody, mouse IgG1, kappa)
heavy 1: B10 heavy 1
heavy 2: not shown
light: B10 light
pSTAT5 EC50 in CD8+ T cells (human PBMC) [1]: 4.6 nM
pSTAT5 EC50 in Treg cells (human PBMC) [4]: 0.36 nM
pSTAT5 EC50 in Treg cells, fold against P-0837 [4]: 800 fold
